Literature values as cited in PMC10361579.
Where “and” joins values, the source holds several entries; their conditions need not be identical. Equal values may be shown once.

Assays:
[1] = target: classical cadherin (X-dimer) (UniProt P12830)
[2] = target: classical cadherin (strand-swap dimer) (UniProt P12830)

Row | Kd [1] [µM] | Kd [2] | Substance
1 | 916 |  | classical cadherin (X-dimer) (from UniProt P12830)
2 |  | 64 µM and 97 µM | classical cadherin (strand-swap dimer) (from UniProt P12830)
